Laboratory results as given in the Human Domainome abundance scans (Beltran et al. 2025).
± gives the uncertainty stated by the source.

B1: Zinc finger homeobox protein 4, residues 2562 to 2617; numbered along this chain, Q86UP3 (parent)
chain: RLRTTITPEQLEILYEKYLLDSNPTRKMLDHIAREVGLKKRVVQVWFQNTRARERK

Variants of: B1
Experiment: abundance fitness (aPCA) (normalised: wild type 0, dead -1); higher = more abundant; growth selection in yeast, the domain comes from the species named
Settings: Homo sapiens

| Variant | abundance fitness |
| --- | --- |
| RLRTTITPEQLEILYEKYLLDSNPTRKMLDHIAREVSLKKRVVQVWFQNTRARERK | -0.359 ± 0.082 |
| RLRTTITPEQLEILYEKYLLDSNPTRKMLDHIAREVRLKKRVVQVWFQNTRARERK | -0.369 ± 0.081 |
| RLRTTITPEQLEILYEKYLLDSNPTRKMLDHIAREVALKKRVVQVWFQNTRARERK | -0.258 ± 0.098 |
| RLRTTITPEQLEILYEKYLLDSNPTRKMLDHIAREVNLKKRVVQVWFQNTRARERK | 0.107 ± 0.14 |
| RLRTTITPEQLEILYEKYLLDSNPTRKMLDHIAREVCLKKRVVQVWFQNTRARERK | -0.006 ± 0.096 |
| RLRTTITPEQLEILYEKYLLDSNPTRKMLDHIAREVVLKKRVVQVWFQNTRARERK | -0.643 ± 0.072 |
| RLRTTITPEQLEILYEKYLLDSNPTRKMLDHIAREVYLKKRVVQVWFQNTRARERK | -0.962 ± 0.24 |
| RLRTTITPEQLEILYEKYLLDSNPTRKMLDHIAREVWLKKRVVQVWFQNTRARERK | -1.1 ± 0.28 |
| RLRTTITPEQLEILYEKYLLDSNPTRKMLDHIAREVDLKKRVVQVWFQNTRARERK | -0.065 ± 0.094 |
| RLRTTITPEQLEILYEKYLLDSNPTRKMLDHIAREVPLKKRVVQVWFQNTRARERK | -0.812 ± 0.23 |
| RLRTTITPEQLEILYEKYLLDSNPTRKMLDHIAREVILKKRVVQVWFQNTRARERK | -0.828 ± 0.27 |
| RLRTTITPEQLEILYEKYLLDSNPTRKMLDHIAREVLLKKRVVQVWFQNTRARERK | -0.71 ± 0.073 |
| RLRTTITPEQLEILYEKYLLDSNPTRKMLDHIAREVKLKKRVVQVWFQNTRARERK | -0.169 ± 0.06 |
| RLRTTITPEQLEILYEKYLLDSNPTRKMLDHIAREVHLKKRVVQVWFQNTRARERK | -0.471 ± 0.2 |
| RLRTTITPEQLEILYEKYLLDSNPTRKMLDHIAREVQLKKRVVQVWFQNTRARERK | -0.051 ± 0.086 |
| RLRTTITPEQLEILYEKYLLDSNPTRKMLDHIAREVMLKKRVVQVWFQNTRARERK | -0.465 ± 0.056 |
| RLRTTITPEQLEILYEKYLLDSNPTRKMLDHIAREVGLKWRVVQVWFQNTRARERK | -0.002 ± 0.087 |
| RLRTTITPEQLEILYEKYLLDSNPTRKMLDHIAREVGLKERVVQVWFQNTRARERK | 0.361 ± 0.085 |
| RLRTTITPEQLEILYEKYLLDSNPTRKMLDHIAREVGLKYRVVQVWFQNTRARERK | 0.518 ± 0.12 |
| RLRTTITPEQLEILYEKYLLDSNPTRKMLDHIAREVGLKPRVVQVWFQNTRARERK | 0.162 ± 0.1 |
| RLRTTITPEQLEILYEKYLLDSNPTRKMLDHIAREVGLKSRVVQVWFQNTRARERK | 0.218 ± 0.049 |
| RLRTTITPEQLEILYEKYLLDSNPTRKMLDHIAREVGLKMRVVQVWFQNTRARERK | 0.243 ± 0.099 |
| RLRTTITPEQLEILYEKYLLDSNPTRKMLDHIAREVGLKARVVQVWFQNTRARERK | 0.163 ± 0.087 |
| RLRTTITPEQLEILYEKYLLDSNPTRKMLDHIAREVGLKGRVVQVWFQNTRARERK | 0.103 ± 0.073 |

| Variant | abundance fitness |
| --- | --- |
| RLRTTITPEQLEILYEKYLLDSNPTRKMLDHIAREVGLKVRVVQVWFQNTRARERK | 0.264 ± 0.052 |
| RLRTTITPEQLEILYEKYLLDSNPTRKMLDHIAREVGLKTRVVQVWFQNTRARERK | 0.199 ± 0.074 |
| RLRTTITPEQLEILYEKYLLDSNPTRKMLDHIAREVGLKIRVVQVWFQNTRARERK | 0.143 ± 0.12 |
| RLRTTITPEQLEILYEKYLLDSNPTRKMLDHIAREVGLKRRVVQVWFQNTRARERK | 0.057 ± 0.086 |
| RLRTTITPEQLEILYEKYLLDSNPTRKMLDHIAREVGLKCRVVQVWFQNTRARERK | 0.108 ± 0.12 |
| RLRTTITPEQLEILYEKYLLDSNPTRKMLDHIAREVGLKFRVVQVWFQNTRARERK | 0.15 ± 0.13 |
| RLRTTITPEQLEILYEKYLLDSNPTRKMLDHIAREVGLKLRVVQVWFQNTRARERK | 0.264 ± 0.065 |
| RLRTTITPEQLEILYEKYLLDSNPTRKMLDHIAREVGLKDRVVQVWFQNTRARERK | -0.097 ± 0.19 |
| RLRTTITPEQLEILYEKYLLDSNPTRKMLDHIAREVGLKHRVVQVWFQNTRARERK | -0.218 ± 0.23 |
| RLRTTITPEQLEILYEKYLLDSNPTRKMLDHIAREVGLRKRVVQVWFQNTRARERK | -0.126 ± 0.06 |
| RLRTTITPEQLEILYEKYLLDSNPTRKMLDHIAREVGLLKRVVQVWFQNTRARERK | 0.072 ± 0.093 |
| RLRTTITPEQLEILYEKYLLDSNPTRKMLDHIAREVGLDKRVVQVWFQNTRARERK | 0.11 ± 0.12 |
| RLRTTITPEQLEILYEKYLLDSNPTRKMLDHIAREVGLIKRVVQVWFQNTRARERK | -0.784 ± 0.24 |
| RLRTTITPEQLEILYEKYLLDSNPTRKMLDHIAREVGLHKRVVQVWFQNTRARERK | -0.072 ± 0.085 |
| RLRTTITPEQLEILYEKYLLDSNPTRKMLDHIAREVGLWKRVVQVWFQNTRARERK | -0.779 ± 0.17 |
| RLRTTITPEQLEILYEKYLLDSNPTRKMLDHIAREVGLCKRVVQVWFQNTRARERK | 0.142 ± 0.12 |
| RLRTTITPEQLEILYEKYLLDSNPTRKMLDHIAREVGLTKRVVQVWFQNTRARERK | 0.284 ± 0.091 |
| RLRTTITPEQLEILYEKYLLDSNPTRKMLDHIAREVGLAKRVVQVWFQNTRARERK | 0.234 ± 0.071 |
| RLRTTITPEQLEILYEKYLLDSNPTRKMLDHIAREVGLNKRVVQVWFQNTRARERK | -0.168 ± 0.29 |
| RLRTTITPEQLEILYEKYLLDSNPTRKMLDHIAREVGLFKRVVQVWFQNTRARERK | -0.862 ± 0.39 |
| RLRTTITPEQLEILYEKYLLDSNPTRKMLDHIAREVGLYKRVVQVWFQNTRARERK | 0.406 ± 0.14 |
| RLRTTITPEQLEILYEKYLLDSNPTRKMLDHIAREVGLGKRVVQVWFQNTRARERK | 0.117 ± 0.047 |
| RLRTTITPEQLEILYEKYLLDSNPTRKMLDHIAREVGLSKRVVQVWFQNTRARERK | 0.278 ± 0.096 |
